± gives the uncertainty stated by the source.
Assay: self-splicing fitness, log relative to wild type (ln ratio); higher = more splicing; Tetrahymena group I intron in knt gene, E. coli kanamycin selection, DiMSum; sequences stand for … in CUCUCU…GGAGGGAAAAGUUAUCAGGCAUGCACCUGGUAGCUAGUCUUUAAACCAAUAGAUUGCAUCGGUUUAAAAGGCAAGACCGUCAAAUUGCGGGAAAGGGGUCAACAGCCGUUCAGUACCAAGUCUCAGGGGAAACUUUGAGAUGGCCUUGCAAAGGGUAUGGUAAUAAGCUGACGGACAUGGUCCUAACCACGCAGCCAAGUCCUAAGUCAACAGAUCUUCUGUUGAUAUGGAUGCAGUUCACAGACUAAAUGUCGGUCGGGGAAGAUGUAUUCUUCUCAUAAGAUAUAGUCGGACCUCUCCUUAAUGGGAGCUAGCGGAUGAAGUGAUGCAACACUGGAGCCGCUGGGAACUAAUUUGUAUGCGAAAGUAUAUUGAUUAGUUUUGGAGUACUCGUGGUCG
Method in brief: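 Colonies from six replicate transformations of E. coli BL21(DE3) were pooled and amplicon-sequenced on an Illumina HiSeq 2500. The library placed an intron with all eight P1ex-region nucleotides randomised inside the knt kanamycin-resistance gene on pET-22b(+), and cells grew overnight at 37°C or 30°C on LB agar with or without 25 μg/mL kanamycin (plus 100 μg/mL carbenicillin, 50 μM IPTG, 0.2% rhamnose). Fitness is the DiMSum error-weighted combination of wild-type-normalised replicate fold changes, kanamycin versus none.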

Sequence | self-splicing fitness (ln) (30 °C) | self-splicing fitness (ln) (37 °C)
GCCUAGCAAUAUUACGUGGU | -3.71 ± 0.22 | -2.23 ± 0.25
ACCAAGCAAUAUUACGCUCC | -1.35 ± 0.17 | -0.621 ± 0.25
GACCAGCAAUAUUACGGGAG | -0.677 ± 0.053 | -0.0889 ± 0.065
AAUAAGCAAUAUUACGUGCC | – | 0.782 ± 0.26
GGGUAGCAAUAUUACGGAGG | – | -0.988 ± 0.29
UUUAAGCAAUAUUACGUAAC | -3.67 ± 0.29 | -2.17 ± 0.19
GAGUAGCAAUAUUACGAGAG | -3.63 ± 0.24 | -3.64 ± 0.27
UUCUAGCAAUAUUACGCAAA | -0.225 ± 0.3 | -1.23 ± 0.27
UACGAGCAAUAUUACGCGGG | -2.83 ± 0.22 | -2.41 ± 0.45
UGGUAGCAAUAUUACGCGUC | -3.94 ± 0.43 | -2.52 ± 0.35
UAUUAGCAAUAUUACGCUUA | -1.05 ± 0.2 | -0.89 ± 0.25
UCACAGCAAUAUUACGUAGA | -1.09 ± 0.063 | -0.0941 ± 0.075
UUCAAGCAAUAUUACGGUCG | -0.917 ± 0.1 | -0.62 ± 0.13
UGCGAGCAAUAUUACGAAAG | -2.87 ± 0.29 | -2.87 ± 0.43
CCCUAGCAAUAUUACGUUAA | -3.42 ± 0.18 | -3.16 ± 0.29
CCAGAGCAAUAUUACGGGGU | -2.35 ± 0.43 | -2.78 ± 0.34
GACAAGCAAUAUUACGUGGU | -3.63 ± 0.11 | -2.76 ± 0.12
CGACAGCAAUAUUACGCUGA | -3.49 ± 0.28 | -2.66 ± 0.28
UUCUAGCAAUAUUACGCCCA | -1.55 ± 0.16 | -1.37 ± 0.14
UGACAGCAAUAUUACGUAUA | -2.19 ± 0.092 | -0.776 ± 0.096
GCAAAGCAAUAUUACGAGAC | – | -2.63 ± 0.43
AUUUAGCAAUAUUACGCCGC | -1.8 ± 0.41 | -1.82 ± 0.48
UUGUAGCAAUAUUACGAAAC | – | -2.66 ± 0.48
GAAAAGCAAUAUUACGUUUU | -3.8 ± 0.18 | -2.4 ± 0.13
UUGGAGCAAUAUUACGUGGA | -2.9 ± 0.33 | -2.24 ± 0.25
ACAGAGCAAUAUUACGCACU | -3.25 ± 0.17 | -1.33 ± 0.14
GACUAGCAAUAUUACGCGGC | -3.16 ± 0.38 | –

Sequence | self-splicing fitness (ln) (30 °C) | self-splicing fitness (ln) (37 °C)
GCAGAGCAAUAUUACGUUAA | -1.87 ± 0.27 | -2.64 ± 0.42
CACGAGCAAUAUUACGGAUC | – | -2.84 ± 0.3
GUGAAGCAAUAUUACGAAUG | -0.846 ± 0.075 | -0.708 ± 0.11
UAGGAGCAAUAUUACGUGAA | -1.66 ± 0.34 | -1.93 ± 0.34
GUGCAGCAAUAUUACGCACU | -3.41 ± 0.28 | -2.3 ± 0.37
AGCUAGCAAUAUUACGCCUA | -0.93 ± 0.14 | -0.324 ± 0.13
GUUGAGCAAUAUUACGGUGG | -2.81 ± 0.33 | -2.81 ± 0.48
GACCAGCAAUAUUACGAGCA | -1.07 ± 0.084 | -0.284 ± 0.096
GUCAAGCAAUAUUACGGUAC | -3.07 ± 0.15 | -0.924 ± 0.11
CGUCAGCAAUAUUACGUCCU | -1.88 ± 0.081 | -1.27 ± 0.098
GUGUAGCAAUAUUACGCCAC | – | -1.07 ± 0.48
GCUAAGCAAUAUUACGAACG | -0.806 ± 0.068 | 0.22 ± 0.097
GCGGAGCAAUAUUACGUUGU | -2.96 ± 0.13 | -1.79 ± 0.14
UGCCAGCAAUAUUACGUAAC | -2.39 ± 0.18 | -2.36 ± 0.2
AAUAAGCAAUAUUACGUCCA | -0.808 ± 0.13 | -0.899 ± 0.19
GAACAGCAAUAUUACGACGA | -0.494 ± 0.085 | 0.265 ± 0.097
CAGAAGCAAUAUUACGGGUA | -2.8 ± 0.16 | -2.25 ± 0.13
ACCCAGCAAUAUUACGACGG | -1.39 ± 0.078 | -0.9 ± 0.086
AGGCAGCAAUAUUACGAAUU | -1.29 ± 0.064 | -1.4 ± 0.093
UAAUAGCAAUAUUACGUGGC | -3.76 ± 0.35 | -2.88 ± 0.43
AUUGAGCAAUAUUACGCUCC | -1.83 ± 0.44 | –
CGACAGCAAUAUUACGCAAU | -4.5 ± 0.33 | -2.81 ± 0.22
UGCUAGCAAUAUUACGUCGC | -3.37 ± 0.2 | -2.65 ± 0.41
CAAAAGCAAUAUUACGCCGC | – | -1.32 ± 0.48
CGCGAGCAAUAUUACGUCUU | -2.32 ± 0.2 | -2.05 ± 0.24
AUGAAGCAAUAUUACGCAUG | -0.801 ± 0.077 | 0.175 ± 0.085
CGCUAGCAAUAUUACGGGAA | -3.1 ± 0.22 | -2.76 ± 0.26

Sequence | self-splicing fitness (ln) (30 °C) | self-splicing fitness (ln) (37 °C)
UCUGAGCAAUAUUACGUCAC | – | -2.32 ± 0.45
GGAGAGCAAUAUUACGCGAC | -2.83 ± 0.21 | -2.22 ± 0.34
AGAAAGCAAUAUUACGUAGG | -2.89 ± 0.14 | -2.16 ± 0.15
CGGUAGCAAUAUUACGGUUU | -3.36 ± 0.16 | -1.83 ± 0.15
AACUAGCAAUAUUACGAAGA | -2.62 ± 0.14 | -1.05 ± 0.12
CCAGAGCAAUAUUACGAGGA | -2.96 ± 0.23 | -2.46 ± 0.27
GGUGAGCAAUAUUACGCCGU | -2.63 ± 0.42 | –
UAUCAGCAAUAUUACGCUAC | -4.2 ± 0.42 | -3.24 ± 0.26
GGACAGCAAUAUUACGGAAG | -2.62 ± 0.13 | -1.36 ± 0.14
GGGUAGCAAUAUUACGCGAU | -3.42 ± 0.26 | -1.93 ± 0.23
CUUGAGCAAUAUUACGUGUC | -2.02 ± 0.22 | -2.28 ± 0.26
GUAAAGCAAUAUUACGCGUC | -1.05 ± 0.12 | -1.3 ± 0.14
CUCCAGCAAUAUUACGCGGC | -1.8 ± 0.26 | -2.08 ± 0.39
GUCCAGCAAUAUUACGUUGA | -0.801 ± 0.057 | -0.239 ± 0.071
GCACAGCAAUAUUACGUUUA | -1.19 ± 0.066 | -0.603 ± 0.066
CAUAAGCAAUAUUACGCACC | -2.33 ± 0.4 | -0.0667 ± 0.48
GAGAAGCAAUAUUACGUAUA | -2.51 ± 0.14 | -1.71 ± 0.14
GACAAGCAAUAUUACGGUGC | -2.77 ± 0.21 | -1.63 ± 0.24
UCAGAGCAAUAUUACGAACU | -2.02 ± 0.33 | –
AUAGAGCAAUAUUACGCUUG | -0.549 ± 0.12 | -0.411 ± 0.13
CGGGAGCAAUAUUACGUUCG | -3.74 ± 0.47 | -1.75 ± 0.27
CCUGAGCAAUAUUACGGGUA | -2.9 ± 0.27 | -2.07 ± 0.31
AUUUAGCAAUAUUACGAGUA | -2.95 ± 0.27 | -0.93 ± 0.18
AUCUAGCAAUAUUACGGUAU | -1.54 ± 0.1 | -1.19 ± 0.13
GGGCAGCAAUAUUACGUCAG | -1.19 ± 0.087 | -0.138 ± 0.11
GGACAGCAAUAUUACGUUCC | -2.58 ± 0.3 | -2.84 ± 0.45

From the supplement of paper PMC7877785
